B1: anti-NDM-type carbapenemase mouse mAb 1GH10 (antibody, V domains shown)
VH: SRDYGLRVELVRPGTSVKVSCKASGYAFSNYLIEWVKQRPGQGLEWIGVINPGRDDTNYNEKFKGKATLTADKSSSTAYMHLSSLTSDDSAVYFCARFPSILRYDSGSFSYFGLDCWGQGTSVTVSS
VL: DVLMTQTPLSLSVSLGDQASISCRSSQSIVHSDGNTYLDWYLQKPGQSPKLLIYKVSNRFSGVPDRFSGSGSGTDFTLKITRVEAEDLGVYYCFQISRVPFTFGSGTKLEIKR
B2: anti-NDM-type carbapenemase mouse mAb 12HE11 (antibody, V domains shown)
VH: VQLHESGPELVKPGASVKLSCTASGYTLSDYHVKWVKQNHGQSLEWIGDIRPQNGDIVYNQKFKDKATLTVDKSSTTAYIRLSSLTSEDSAVYYCAFHYYAYGKWFPYWGQGTLVTVS
VL: DILMTQSPSSLTVTAGEKVTLSCRSSQSLFNSGNQKNYLTWHQQKPGQSPKLLIYWAVTRESGVPDRFTGSGSGTDFTLTISSVQAEDLAIYYCQNDYSYPLTFGAGTKLELK

Target: NDM-type carbapenemase (New Delhi metallo-β-lactamase), recombinant
Assay: indirect ELISA, plate coated with 0.2 µg/mL NDM carbapenemase, goat anti-mouse secondary antibody, TMB
Details: scale: reciprocal dilution

| Binder | titer |
| --- | --- |
| B1 | > 1.28e+06 |
| B2 | > 1.28e+06 |

From EP4261278A1
